Assay [1] has as its target T1, HLA-A*02:01 class I complex (conditional p*HLA*02:01, biotinylated heavy chain with beta2-microglobulin) (human, biotinylated heavy chain).
T1 construct: UV-labile peptide p* is cleaved and exchanged for the test peptide; also called HLA 2.1
In words: UV peptide exchange, HLA class I ELISA, % of Pos peptide. (ELISA stands for enzyme-linked immunosorbent assay.)
Source text: (§1) The HLA class I ELISA is an enzyme immunoassay based on the detection of beta2-microglobulin (B2M) of (peptide-stabilized) HLA class I complexes. To this end streptavidin is bound onto polystyrene microtiter wells. After washing and blocking, HLA complex present in exchange reaction mixtures or ELISA controls is captured by the streptavidin on the microtiter plate via its biotinylated heavy chain. Non-bound material is removed by washing. Subsequently, horseradish peroxidase (HRP)-conjugated antibody to human B2M is added. […] In the latter case B2M is removed during the washing step. After removal of non-bound HRP conjugate by washing, a substrate solution is added to the wells. A colored product is formed in proportion to the amount of intact HLA complex present in the samples. After the reaction has been terminated by the addition of a stop solution, absorbance is measured in a microtiter plate reader. The absorbance is normalized to the absorbance of an exchange control peptide (represents 100%). Also, suboptimal HLA binding of peptides with a moderate to low affinity for HLA class I molecules can be detected by this ELISA technique
(§2) Coating wells of two NUNC MaxiSorp™ 96-well ELISA plates: only the contents of one coating buffer capsule were dissolved in 100 mL of distilled water (0.05 M carbonate-bicarbonate buffer, pH 9.6 at 25° C.). 46 μL of Streptavidin stock solution were added to 23 mL coating buffer. 100 μL of the Streptavidin stock solution were added to all wells. Each microtiter plate was covered with an adhesive seal and incubated overnight at room temperature (18-25° C.).

The target in assay [2] is T1, HLA-A*02:01 class I complex …. Nature of the assay: UV peptide exchange, HLA class I ELISA; high end of the group, member by Table 4.
Source text: as §1, §2
Assay [3] shares this target. In words: UV peptide exchange, HLA class I ELISA, % of Pos peptide. This is another data set of the same source.
For assay [4] the target is unchanged. The assay is described as above. The source holds these as a separate data set.
Source text: as §1, §2
Assay [5] has the same target. Nature of the assay: UV peptide exchange, HLA class I ELISA; low end of the group, member by Table 4.
Source text: as §1, §2

Where only a bound is given, the exact number is not on record here.

These results are taken from US20220194999A1 (Janssen / Centocor, published 2022).
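Throughout, for Average %: Streptavidin-captured HLA complexes after exchange detected via HRP anti-human B2M antibody, absorbance read, colour scales with intact complex, normalized to exchange control peptide as 100%.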
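Throughout, for Exch I (%): Streptavidin-captured HLA complexes after exchange detected via HRP anti-human B2M antibody, absorbance read, colour scales with intact complex, normalized to exchange control peptide as 100%.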
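Throughout, for Exch II (%): Streptavidin-captured HLA complexes after exchange detected via HRP anti-human B2M antibody, absorbance read, colour scales with intact complex, normalized to exchange control peptide as 100%.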

In the case of SMTCTYFPI (also called M215) [TP53_S127F12 mimic peptide SMTCTYFPI], in assay [1], the Average % amounted to 27.5%, the “Exch I (%)” value amounted to 32.2% and the “Exch II (%)” value is 22.7%. Further, the “average relative binding (%)” value in assay [2] was in the range of 18 to 28%.

Consider KTYPVQLWV (also called M130) [TP53.C141Y mutant peptide KTYPVQLWV], for which, in assay [3], the “Mutant Binding” value came out at 68.9%. In addition, in assay [1], the Average % was found to be 68.9%, the “Exch I (%)” value was 66.6% and the “Exch II (%)” value worked out at 71.2%.

For KMYPVQLWL (also called M133) [TP53_C141Y8 mimic peptide KMYPVQLWL], the “average relative binding (%)” value in assay [4] is greater than 100%. Further, in assay [1], the Average % stood at 112%, the “Exch I (%)” value stood at 122% and the “Exch II (%)” value stood at 103%. The “average relative binding (%)” value in assay [2] lay within 102 to 113%.

For the molecule ALNNMFCQL (also called M160) [TP53.K132N mutant peptide ALNNMFCQL], in assay [3], the “Mutant Binding” value stood at 41.3%. The “average relative binding (%)” value in assay [5] is 41 to 49%. Further, in assay [1], the Average % was 41.3%, the “Exch I (%)” value is 39.6% and the “Exch II (%)” value turned out to be 43.1%.

Consider QLWVDSTPL (also called M180) [TP53.P152L mutant peptide QLWVDSTPL], for which the “Mutant Binding” value in assay [3] was 86.2%. In assay [1], the Average % was 86.2%, the “Exch I (%)” value was determined as 84.3% and the “Exch II (%)” value is 88.1%.

For YLDCGIHSG (also called M020) [CTNNB1.S33C mutant peptide YLDCGIHSG], the “Mutant Binding” value in assay [3] was determined as 34.8%. In addition, in assay [1], the Average % was 33.9%, the “Exch I (%)” value was found to be 34.8% and the “Exch II (%)” value amounted to 33%.

In the case of YLDSGIHFG (also called M030) [CTNNB1.S37F mutant peptide YLDSGIHFG], the “Mutant Binding” value in assay [3] is 53.7%. For the same molecule, in assay [1], the Average % came to 53.4%, the “Exch I (%)” value turned out to be 53.7% and the “Exch II (%)” value was 53.2%.

Turning to LLGRNSFEM (also called M220) [TP53.V272M mutant peptide LLGRNSFEM], in assay [3], the “Mutant Binding” value came out at 50.9%. For the same molecule, in assay [1], the Average % turned out to be 50.9%, the “Exch I (%)” value worked out at 58.8% and the “Exch II (%)” value was determined as 42.9%.

In the case of VVPCEPPEV (also called M230) [TP53.Y220C mutant peptide VVPCEPPEV], in assay [3], the “Mutant Binding” value came to 33.5%. Further, in assay [1], the Average % is 33.5%, the “Exch I (%)” value came to 29.4% and the “Exch II (%)” value stood at 37.5%.

On to ILNREIDFA (also called M090) [PIK3CA.G118D mutant peptide ILNREIDFA], for which the “Mutant Binding” value in assay [3] was 50.4%. Further, in assay [1], the Average % is 50.4%, the “Exch I (%)” value was 53.1% and the “Exch II (%)” value was 47.8%.
